Measured values: the supplement of paper PMC9170038

What was measured:
MS2 coat protein [1] = experiment: apparent KD of MS2 coat protein, switch ON state; designed switch direction (-1 OFF switch, 1 ON switch): -1; higher = weaker reporter binding; conditions: FMN input: 0 or 200 uM; Eterna round: R93 (includes R88 designs)
Method in brief: (§1)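 Normalised binding curves from single clusters were fitted, and the median fit for each design is given as apparent KD. The clusters held designed RNA switches transcribed on-chip from Illumina sequencing clusters. These were titrated with SNAP-549-labelled MS2 coat protein (twofold steps from 0.7 or 1.5 nM to 3 µM, 0.8–1.5 h to 10–20 min per step) in 100 mM Tris-HCl pH 7.5, 80 mM KCl, 4 mM MgCl2, without or with constant ligand.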

MS2 coat protein [2] = experiment: apparent KD of MS2 coat protein, switch OFF state (with FMN for OFF switches, without FMN for ON switches); designed switch direction (-1 OFF switch, 1 ON switch): -1; higher = weaker reporter binding; conditions: FMN input: 0 or 200 uM; Eterna round: R93 (includes R88 designs)
Method in brief: as §1

MS2 coat protein [3] = experiment: apparent KD of MS2 coat protein; designed switch direction (-1 OFF switch, 1 ON switch): 1; higher = weaker reporter binding
Method in brief: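 The reported apparent KD is a per-design median over clusters, from curve fits of normalised cluster fluorescence. Protein titrations used SNAP-549-labelled MS2 coat protein, doubled from 0.7 or 1.5 nM to 3 µM, in Tris-HCl pH 7.5 buffer with KCl, MgCl2, BSA, DTT, tRNA and Tween-20, with no input, 200 uM small-molecule ligand, or an oligonucleotide input. The RNA switches were transcribed on Illumina chips by stalled E. coli RNA polymerase.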

[4] = input ligand: microRNA oligo, concentration not stated
[5] = Eterna round: R95, input ligand: FMN 200 uM
[6] = Eterna round: R95, input ligand: microRNA oligo, concentration not stated
[7] = Eterna round: R95, input ligand: none

Row | Sequence | apparent KD of MS2 coat protein (MS2 coat protein [1]) | apparent KD of MS2 coat protein (MS2 coat protein [2]) | also measured
1 | AAAAAAAAAGGAUAUAAAAAAAAAAGUCAGGAUAUAGGAAACUAGAAGGGACAUGAGGAUCACCCAUGUAAAAA [Meechl Ex4 R2 m0] | 63.5 nM | 40.8 nM | 
2 | AAAAAACAUGAGGAUCACCCAUGUAAGGAUAUGCAAGCAAGAAGAAAGAACAGAAAAAGCAGAAGGUACAAAAA [Amethyst 72] | 25.3 nM | 35.9 nM | 
3 | AAAAAACAUGAGGAUCACCCAUGUAAGGAUAUGCUAGGAAAAAGAAAAAUAAAAACUAGCAGAAGGUACAUAAA [JL wbt mod 10] | 25.3 nM | 30.6 nM | 
4 | AAAAAACAUGAGGAUCACCCAUGUAAGGAUAUGCUGAAAAAAACCUGGAAAACAGGCAGCAGAAGGUACAAAAA [66%, Wbt, 36] | 23.9 nM | 35.6 nM | 
5 | AAAAAACAUGAGGAUCACCCAUGUAAGGAUAUGUAAAAUAAAAGAAAAAUAAAGAAAAGCAGAAGGUAUAUGAA [JL wbt mod 13] | 27.6 nM | 40.7 nM | 
6 | AAAAAACAUGAGGAUCACCCAUGUCAGGAUAUCCGGUUCUUGAAAAAAAAGAGGCGUUGGAGAAGGGACAUUCC [Chica Displaced 13 - Jieux - Exclusion 1] | 25 nM | 38.7 nM | 
7 | AAAAAACAUGAGGAUCACCCAUGUCAGGAUAUCGAAAGAAAAAAAAAGAAAAAAAAAACGAGAAGGGACAAAAA [Amethyst 28] | 56.1 nM | 30.3 nM | 
8 | AAAAAACAUGAGGAUCACCCAUGUCAGGAUAUGCGAAGCAAAAAAAAAAAAAAGCGAAGCAGAAGGGACUAAAA [Exclusion1 Malc#5] | 38.2 nM | 32.9 nM | 
9 | AAAAAACAUGAGGAUCACCCAUGUGAGGAUAUACUAAACAAAAAAAACAAAAACAAAUGUAGAAGGCACAAAAA [Amethyst 36] | 19 nM | 23 nM | 
10 | AAAAAACAUGAGGAUCACCCAUGUGAGGAUAUCGAAAAGUCAAAGAAAAAGACGAAAACGAGAAGGCACAAAAA [Mat - Mod of Eli 2] | 28.1 nM | 43.6 nM | 
11 | AAAAAACAUGAGGAUCACCCAUGUGAGGAUAUCGAUAUUAAAGACACCCACUUAAUGGCGAGAAGGCGCAAAAA [Brourd 613 Mod 20 - Jieux - Exclusion 1] | 25.4 nM | 26.5 nM | 
12 | AAAAAACAUGAGGAUCACCCAUGUGAGGAUAUCGCUAGUGAGGCCAUAGUGUCAGUGAUGAGAAGGCACAUAAA [Brourd 613 Mod 9 - Jieux - Exclusion 1] | 37.7 nM | 30.8 nM | 
13 | AAAAAACAUGAGGAUCACCCAUGUGAGGAUAUCUGUAUCCAAAAGGAAGUGUAGGAUCGGAGAAGGCACUAGGA [Banishment 1 - Jieux - Exclusion 1] | 36.5 nM | 52.3 nM | 
14 | AAAAAACAUGAGGAUCACCCAUGUGAGGAUAUCUGUAUUCAAUCCUCGGAUUGAAUACAGAGAAGGCACAUGGG [Ex1: 609] | 13.9 nM | 14.2 nM | 
15 | AAAAAACAUGAGGAUCACCCAUGUGAGGAUAUGAACGAAAUAAAAUAAAAAUAAAAGUUCAGAAGGCACAAAAA [Mat - Exclusion 1 - Eli mod - D11] | 33.2 nM | 44.7 nM | 
16 | AAAAAACAUGAGGAUCACCCAUGUGAGGAUAUGCAAAAGAAAAGAAAAGAAAGAAGAAGCAGAAGGUACAAGAA [Shepseskare Isi] | 22.6 nM | 27.7 nM | 

Row | Sequence | apparent KD of MS2 coat protein (MS2 coat protein [1]) | apparent KD of MS2 coat protein (MS2 coat protein [2]) | also measured
17 | AAAAAACAUGAGGAUCACCCAUGUGAGGAUAUGCUAUGGAAAAUAAAAAUAAAACAUAGCAGAAGGCACAAUGU [Denovo 5] | 50.9 nM | 85.2 nM | 
18 | AAAAAACAUGAGGAUCACCCAUGUGAGGAUAUGCUGCGAAUAAAGAAAGAAGAAAGCAGCAGAAGGCACACCAA [Amethyst 77] | 26.5 nM | 45.6 nM | 
19 | AAAAAACAUGAGGAUCACCCAUGUGAGGAUAUGUAUAUCCCUAAAAAAGUGUGGGACUACAGAAGGCACUUGGA [Atanri] | 43.3 nM | 122 nM | 
20 | AAAAACAUAGGAUAUACAUGAGGAUCACCCAUGUUAAAAUAAAGAAAGGGAGAAAUAAGUAGAAGGAUGAAAAA [Meechl Ex3 3] | 26.5 nM | 31.2 nM | 
21 | AAAAACCGAGGAUAUACAUGAGGAUCACCCAUGUGAAAAAAAAAAAAGAGGAAAAGAUGUAGAAGGCGGAAAAA [65%, Moding Exclusion3-cac2, 17] | 33.9 nM | 44.1 nM | 
22 | AAAAAGACAGGAUAUACGUGAAAAAUAAAAAUGUAAAAAAAACAUGAGGAUCACCCAUGUAGAAGGGUCAAAAA [Ecx-I 62% 3] | 59.3 nM | 61.8 nM | 
23 | AAAAAGAUAGGAUAUACGUACAUGUCAAAAGACGUGAAGGGACAUGAGGAUCACCCAUGUAGAAGGGUUAAAAA [JL Wide Open 41] | 285 nM | 45.3 nM | 
24 | AAAAAGGCAGGAUAUACGUACAUGUCAAAAGACGUGAAGGGACAUGAGGAUCACCCAUGUAGAAGGGUCAAGAA [JL Stem Breaker 19] | 128 nM | 61.9 nM | 
25 | AAAAAGGGAGGAUAUACAUGAGGAUCACCCAUGUGAAAGACGAAAAAGAGUCUAAAAAGUAGAAGGCCCAAAAA [65%, Moding Exclusion3-cac2, 9] | 33.5 nM | 43 nM | 
26 | UUUACUUUCAUAGGAUAUCAUGCGAAAAUUGCGUGAGAAGGGUGCACACUGUCUUUCUCGGAGUACAUGAGGAUCACCCAUGUG [SameState NG1 #67] (Eterna round: R96, puzzle: Same State NG 1) |  |  | apparent KD of MS2 coat protein (MS2 coat protein [3]; input ligand: FMN 200 uM): 45.6 nM; apparent KD of MS2 coat protein (MS2 coat protein [3]; [4]): 36.8 nM; apparent KD of MS2 coat protein (MS2 coat protein [3]; input ligand: none): 44.3 nM
27 | UUUAGAGGCGCAGGAUAUGGUGAGGAUCACCCACUAGAAGGGUGCACAUGAGAAUCGGACAUGAGGAUCACCCAUGUUUGGCGC (Eterna round: R96, puzzle: Same State NG 1) |  |  | apparent KD of MS2 coat protein (MS2 coat protein [3]; input ligand: FMN 200 uM): 806 nM; apparent KD of MS2 coat protein (MS2 coat protein [3]; [4]): 554 nM; apparent KD of MS2 coat protein (MS2 coat protein [3]; input ligand: none): 816 nM
28 | UUUAGUUGCGCGCAGGAUAUGUAUUAAUAUACAUGAGGAUCACCCAUGUGAGAUCGAAUAGAUCUACAGAAGGGCGAAUCGCGAC [Laonerce - 26] (puzzle: Same State 2) |  |  | apparent KD of MS2 coat protein (MS2 coat protein [3]; [5]): 32.9 nM; apparent KD of MS2 coat protein (MS2 coat protein [3]; [6]): 168 nM; apparent KD of MS2 coat protein (MS2 coat protein [3]; [7]): 611 nM
29 | UUUAGUUGCGGGCAGGAUAUGUAUUAAAAUACAUGAGGAUCACCCAUGUGCGGGUAUAACACCCGACAGAAGGGCCAAUCGCGAC [Laonerce] (Eterna round: R96, puzzle: Same State 2) |  |  | apparent KD of MS2 coat protein (MS2 coat protein [3]; input ligand: FMN 200 uM): 24.5 nM; apparent KD of MS2 coat protein (MS2 coat protein [3]; [4]): 256 nM; apparent KD of MS2 coat protein (MS2 coat protein [3]; input ligand: none): 278 nM
30 | UUUAGUUGCGGGCAGGAUAUGUAUUAAUAUACAUGAGGAUCACCCAUGUGCGGGUAUAACACCCGACAGAAGGGCCAAUCGCGAC [Laonerce - 5] (puzzle: Same State 2) |  |  | apparent KD of MS2 coat protein (MS2 coat protein [3]; [5]): 28.3 nM; apparent KD of MS2 coat protein (MS2 coat protein [3]; [6]): 302 nM; apparent KD of MS2 coat protein (MS2 coat protein [3]; [7]): 389 nM
31 | UUUGGGUGGCUGGAGGAUAUCCUUGUGGUUACAUGAGGAUCACCCAUGUGCCGCGCGGUGCGCGAGGAGAAGGCUGGCGGCCGUU (puzzle: Same State 2) |  |  | apparent KD of MS2 coat protein (MS2 coat protein [3]; [5]): 26 nM; apparent KD of MS2 coat protein (MS2 coat protein [3]; [6]): 79.5 nM; apparent KD of MS2 coat protein (MS2 coat protein [3]; [7]): 151 nM
32 | UUUGGGUGGCUGGAGGAUAUUCGAGUGGUUACAUGAGGAUCACCCAUGUGUCGCGCGGUACACGAGGAGAAGGCUGGCGGCCGUU (puzzle: Same State 2) |  |  | apparent KD of MS2 coat protein (MS2 coat protein [3]; [6]): 37.7 nM
